Source: article PMC3179271

How the values were obtained:
[1] = biological target: FLAG-V5-Blow (Drosophila); test: co-IP
[2] = biological target: FLAG-V5-WASP (Drosophila); test: co-IP

FLAG-Sltr (natural protein)
Kd [1]: 48.1 nM
Kd [2]: 6.7 nM
